From doi:10.1101/2021.03.17.435802 (bioRxiv, 2021) come the findings set out here.

The target in the assay is SARS-CoV-2 S1 WT (in-house) (SARS-CoV-2, UniProt P0DTC2). As to the kind of experiment: SPR. A general note: SPR reads the build-up and loss of mass on a sensor chip optically.

B1: REGN10987 (antibody, V domains shown)
VH: QVQLVESGGGVVQPGRSLRLSCAASGFTFSNYAMYWVRQAPGKGLEWVAVISYDGSNKYYADSVKGRFTISRDNSKNTLYLQMNSLRTEDTAVYYCASGSDYGDYLLVYWGQGTLVTVSS
VL: QSALTQPASVSGSPGQSITISCTGTSSDVGGYNYVSWYQQHPGKAPKLMIYDVSKRPSGVSNRFSGSKSGNTASLTISGLQSEDEADYYCNSLTSISTWVFGGGTKLTVL
On to B1, for which the binding result is “binds”.
